Results from US20160046671A1.
Bridges are numbered along the chain shown (N, C = ends). Where no end group is shown, it is not given here. [ ]: non-standard residue; d: D form. S5 = C=CCCC[C@](C)(N)C(=O)O

Molecular target: Wild-type human KRAS protein, N-terminal His6-tag fusion (human), P01116
Assay: fluorescence polarization
Conditions: modification not given

B1: SAH-SOS A2 (peptide)
chain: RRF[S5]GIY[S5]TNILKTEEGN
modifications: staple 4-8
  Kd: 21 nM
